Data: the supplement of paper PMC9112550, “Optimization of the antimicrobial peptide Bac7 by deep mutational scanning” (BMC Biology, 2022)

Tested on: Escherichia coli TOP10
Assay: shrunken log2 fold change of peptide-encoding DNA abundance (4.5 h post-induction vs induction); higher = less antimicrobial activity (less host growth inhibition)
Details: time post-induction: 4.5 h; library: site-saturation at positions 5, 18, 19, 20
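Also: peptides expressed intracellularly from a pBAD plasmid library in pooled LB shake-flask culture, induced with 0.3% L-arabinose, DNA abundance read by NGS, three biological replicates, DESeq2 with apeglm shrinkage.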

Sequence	shrunken log2 fold change
RRIRARPPRLPRPRPRPFMGPRP	-0.255
RRIRARPPRLPRPRPRPFMIPRP	-0.1
RRIRARPPRLPRPRPRPFPDPRP	0.262
RRIRARPPRLPRPRPRPFSCPRP	-0.122
RRIRARPPRLPRPRPRPFSFPRP	-0.235
RRIRARPPRLPRPRPRPFSKPRP	-0.301
RRIRARPPRLPRPRPRPFSLPRP	0.0486
RRIRARPPRLPRPRPRPFTMPRP	-0.378
RRIRARPPRLPRPRPRPFWHPRP	0.165
RRIRARPPRLPRPRPRPFWIPRP	-0.0619
RRIRARPPRLPRPRPRPFWQPRP	0.0762
RRIRARPPRLPRPRPRPFYLPRP	-0.515
RRIRARPPRLPRPRPRPGCWPRP	0.965
RRIRARPPRLPRPRPRPGDAPRP	0.711
RRIRARPPRLPRPRPRPGDWPRP	0.8
RRIRARPPRLPRPRPRPGDYPRP	0.226
RRIRARPPRLPRPRPRPGEKPRP	0.333
RRIRARPPRLPRPRPRPGESPRP	0.014
RRIRARPPRLPRPRPRPGGHPRP	0.115
RRIRARPPRLPRPRPRPGGMPRP	0.337

Sequence	shrunken log2 fold change
RRIRARPPRLPRPRPRPGINPRP	-0.242
RRIRARPPRLPRPRPRPGIRPRP	0.475
RRIRARPPRLPRPRPRPGIVPRP	0.174
RRIRARPPRLPRPRPRPGKFPRP	-0.167
RRIRARPPRLPRPRPRPGLHPRP	0.275
RRIRARPPRLPRPRPRPGMEPRP	0.161
RRIRARPPRLPRPRPRPGMHPRP	0.233
RRIRARPPRLPRPRPRPGRHPRP	0.159
RRIRARPPRLPRPRPRPGSRPRP	0.279
RRIRARPPRLPRPRPRPGVTPRP	0.611
RRIRARPPRLPRPRPRPHAHPRP	0.254
RRIRARPPRLPRPRPRPHDFPRP	0.0354
RRIRARPPRLPRPRPRPHDHPRP	-0.0299
RRIRARPPRLPRPRPRPHECPRP	0.423
RRIRARPPRLPRPRPRPHEGPRP	0.148
RRIRARPPRLPRPRPRPHENPRP	0.127
RRIRARPPRLPRPRPRPHEWPRP	0.311
RRIRARPPRLPRPRPRPHGAPRP	0.52
RRIRARPPRLPRPRPRPHGCPRP	0.128
RRIRARPPRLPRPRPRPHGGPRP	0.301

Sequence	shrunken log2 fold change
RRIRARPPRLPRPRPRPHHEPRP	-0.119
RRIRARPPRLPRPRPRPHHIPRP	-0.345
RRIRARPPRLPRPRPRPHHNPRP	-0.483
RRIRARPPRLPRPRPRPHHSPRP	-0.404
RRIRARPPRLPRPRPRPHHTPRP	-0.364
RRIRARPPRLPRPRPRPHKSPRP	0.42
RRIRARPPRLPRPRPRPHLDPRP	0.324
RRIRARPPRLPRPRPRPHLSPRP	0.0969
RRIRARPPRLPRPRPRPHMCPRP	-0.174
RRIRARPPRLPRPRPRPHMHPRP	-0.152
RRIRARPPRLPRPRPRPHMPPRP	-0.419
RRIRARPPRLPRPRPRPHNDPRP	-0.34
RRIRARPPRLPRPRPRPHPDPRP	0.395
RRIRARPPRLPRPRPRPHPHPRP	0.322
RRIRARPPRLPRPRPRPHQQPRP	0.33
RRIRARPPRLPRPRPRPHRHPRP	-0.0481
RRIRARPPRLPRPRPRPHSCPRP	0.0724
RRIRARPPRLPRPRPRPHSPPRP	0.122
RRIRARPPRLPRPRPRPHSWPRP	0.475
RRIRARPPRLPRPRPRPHTFPRP	-0.314
